± gives the standard deviation of the averaged measurements.
Experiments:
Saccharomyces cerevisiae [1] = experiment: protein stability index of tFT-peptide fusion (C-terminal peptide) (PSI (0-1 scale)); higher = more stable (slower turnover)
Method: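 MPS profiling in S. cerevisiae of the tFT-X12 degron library: putative degron peptides plus stable controls, 12 aa, fused to the C-terminus of a sfGFP-mCherry timer. Cells are FACS-sorted into 8 mCherry/sfGFP bins and deep-sequenced. PSI runs from 0 (unstable) to 1 (stable). Backgrounds are wild type, das1Δ and doa10Δ at 30 °C, and wild type, das1Δ, cdc34-1 and cdc53-1 at 37 °C; 2-3 technical replicates each.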

Saccharomyces cerevisiae [2] = experiment: as above; settings: genetic background: wild type; temperature: 30 C
[3] = genetic background: cdc34-1, temperature: 37 C
[4] = genetic background: cdc53-1, temperature: 37 C
[5] = genetic background: das1 deletion, temperature: 30 C
[6] = genetic background: das1 deletion, temperature: 37 C
[7] = genetic background: doa10 deletion, temperature: 30 C
[8] = genetic background: wild type, temperature: 30 C
[9] = genetic background: wild type, temperature: 37 C
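Note: PSI is a weighted mean of sequencing reads over stability bins, variants kept only with over 10 reads, mCherry proximal and sfGFP distal, peptide attached via GGGS linker.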

| Sequence | protein stability index (Saccharomyces cerevisiae [1]; [3]) | protein stability index (Saccharomyces cerevisiae [1]; [4]) | protein stability index (Saccharomyces cerevisiae [1]; [5]) | protein stability index (Saccharomyces cerevisiae [1]; [6]) | protein stability index (Saccharomyces cerevisiae [1]; [7]) | protein stability index (Saccharomyces cerevisiae [1]; [8]) | protein stability index (Saccharomyces cerevisiae [1]; [9]) | protein stability index (Saccharomyces cerevisiae [2]) |
| --- | --- | --- | --- | --- | --- | --- | --- | --- |
| AVLAALVSTLAG | 0.548 ± 0.019 | 0.565 ± 0.0091 | 0.383 ± 0.024 | 0.5888 ± 0.0053 | 0.349 ± 0.013 | 0.406 ± 0.028 | 0.553 ± 0.026 | 0.4785 ± 0.00075 |
| AVPTSPYSLIVY | 0.524 ± 0.0083 | 0.495 ± 0.088 | 0.367 ± 0.0063 | 0.54146 ± 0.00044 | 0.326 ± 0.011 | 0.337 ± 0.021 | 0.485 ± 0.011 | 0.476 ± 0.022 |
| AWGSWTLCVAVH | 0.0257 ± 0.0088 | 0.0323 ± 0.0061 | 0.0888 ± 0.043 | 0.0713 ± 0.01 | 0.07331 ± 0.00055 | 0.089 ± 0.027 | 0.0602 ± 0.015 | 0.151 ± 0.011 |
| AWWMALAVPIVA | 0.02 ± 0.0012 | 0.0219 ± 0.0076 | 0.103 ± 0.025 | 0.0676 ± 0.013 | 0.0817 ± 0.02 | 0.1 ± 0.023 | 0.062 ± 0.00098 | 0.0514 ± 0.042 |
| CCFVGLRYVLWV | 0.431 ± 0.022 | 0.5 ± 0.018 | 0.345 ± 0.029 | 0.531 ± 0.0061 | 0.278 ± 0.012 | 0.288 ± 0.0082 | 0.462 ± 0.015 | 0.365 ± 0.009 |
| CCLGVIASFIVW | 0.247 ± 0.01 | 0.435 ± 0.15 | 0.284 ± 0.036 | 0.455 ± 0.024 | 0.236 ± 0.0065 | 0.254 ± 0.036 | 0.408 ± 0.0049 | 0.3579 ± 0.0021 |
| CFLLSYRWVFLC | 0.0855 ± 0.0055 | 0.0678 ± 0.0095 | 0.177 ± 0.033 | 0.2381 ± 0.0016 | 0.0531 ± 0.0053 | 0.0411 ± 0.018 | 0.0605 ± 0.03 | 0.0949 ± 0.027 |
| CFSIPLVILNVL | 0.468 ± 0.018 | 0.496 ± 0.02 | 0.431 ± 0.018 | 0.531 ± 0.025 | 0.335 ± 0.0063 | 0.338 ± 0.02 | 0.455 ± 0.0097 | 0.413 ± 0.0076 |
| CFWLLSSLLLFL | 0.462 ± 0.016 | 0.474 ± 0.0089 | 0.429 ± 0.017 | 0.5398 ± 0.0016 | 0.492 ± 0.0067 | 0.416 ± 0.034 | 0.514 ± 0.0075 | 0.453 ± 0.019 |
| CFYVGFLGYFVF | 0.447 ± 0.026 | 0.556 ± 0.005 | 0.357 ± 0.04 | 0.55 ± 0.027 | 0.342 ± 0.0064 | 0.367 ± 0.011 | 0.505 ± 0.014 | 0.42 ± 0.0044 |
| CGLGKVLGWRWV | 0.643 ± 0.036 | 0.7267 ± 0.002 | 0.64 ± 0.015 | 0.745 ± 0.023 | 0.185 ± 0.0019 | 0.227 ± 0.01 | 0.5193 ± 0.0018 | 0.4241 ± 0.0014 |
| CGPLLVTLVLSM | 0.445 ± 0.045 | 0.423 ± 0.02 | 0.305 ± 0.032 | 0.5011 ± 0.0028 | 0.304 ± 0.01 | 0.306 ± 0.018 | 0.476 ± 0.012 | 0.404 ± 0.0049 |
| CLAWWLGRVWVC | 0.184 ± 0.018 | 0.225 ± 0.0095 | 0.219 ± 0.027 | 0.364 ± 0.0011 | 0.115 ± 0.011 | 0.0919 ± 0.017 | 0.105 ± 0.0053 | 0.141 ± 0.006 |
| CLILGLFSLIFL | 0.525 ± 0.061 | 0.5644 ± 0.00097 | 0.452 ± 0.018 | 0.561 ± 0.011 | 0.4758 ± 0.0028 | 0.441 ± 0.016 | 0.531 ± 0.056 | 0.482 ± 0.027 |
| CLRVSFFFWLFA | 0.465 ± 0.017 | 0.562 ± 0.0068 | 0.392 ± 0.041 | 0.553 ± 0.0073 | 0.224 ± 0.0084 | 0.263 ± 0.017 | 0.424 ± 0.0084 | 0.351 ± 0.016 |
| CRFYIRITRRYS | 0.491 ± 0.017 | 0.576 ± 0.024 | 0.541 ± 0.041 | 0.584 ± 0.032 | 0.156 ± 0.025 | 0.132 ± 0.033 | 0.255 ± 0.031 | 0.21 ± 0.025 |
| CRLLVFGLCVGA | 0.292 ± 0.012 | 0.332 ± 0.0083 | 0.228 ± 0.046 | 0.419 ± 0.0084 | 0.189 ± 0.0062 | 0.237 ± 0.022 | 0.39 ± 0.0056 | 0.342 ± 0.014 |
| CRWHLRIVRGLM | 0.5609 ± 0.0048 | 0.665 ± 0.00068 | 0.593 ± 0.01 | 0.6603 ± 0.0027 | 0.29 ± 0.019 | 0.276 ± 0.056 | 0.415 ± 0.019 | 0.377 ± 0.0026 |
| CSKGLSILLLLL | 0.636 ± 0.055 | 0.672 ± 0.028 | 0.469 ± 0.021 | 0.634 ± 0.028 | 0.301 ± 0.018 | 0.321 ± 0.034 | 0.53 ± 0.012 | 0.41 ± 0.0064 |
| CSRDVFLFIKFL | 0.391 ± 0.023 | 0.544 ± 0.018 | 0.457 ± 0.0096 | 0.5679 ± 0.002 | 0.0736 ± 0.035 | 0.075 ± 0.019 | 0.127 ± 0.037 | 0.132 ± 0.02 |

| Sequence | protein stability index (Saccharomyces cerevisiae [1]; [3]) | protein stability index (Saccharomyces cerevisiae [1]; [4]) | protein stability index (Saccharomyces cerevisiae [1]; [5]) | protein stability index (Saccharomyces cerevisiae [1]; [6]) | protein stability index (Saccharomyces cerevisiae [1]; [7]) | protein stability index (Saccharomyces cerevisiae [1]; [8]) | protein stability index (Saccharomyces cerevisiae [1]; [9]) | protein stability index (Saccharomyces cerevisiae [2]) |
| --- | --- | --- | --- | --- | --- | --- | --- | --- |
| CSSLIMIITCVN | 0.2613 ± 0.00064 | 0.289 ± 0.013 | 0.244 ± 0.031 | 0.4 ± 0.017 | 0.0883 ± 0.023 | 0.115 ± 0.0091 | 0.122 ± 0.027 | 0.199 ± 0.046 |
| CTESVYIIRFML | 0.638 ± 0.045 | 0.661 ± 0.025 | 0.568 ± 0.025 | 0.662 ± 0.02 | 0.222 ± 0.003 | 0.253 ± 0.035 | 0.466 ± 0.029 | 0.341 ± 0.084 |
| CVEACVWYNAGL | 0.745 ± 0.046 | 0.782 ± 0.024 | 0.662 ± 0.024 | 0.774 ± 0.027 | 0.6577 ± 0.004 | 0.687 ± 0.031 | 0.764 ± 0.015 | 0.7382 ± 0.0062 |
| CVILVVISGLLG | 0.166 ± 0.035 | 0.315 ± 0.039 | 0.199 ± 0.039 | 0.3938 ± 0.0035 | 0.178 ± 0.013 | 0.217 ± 0.03 | 0.3491 ± 0.0021 | 0.345 ± 0.078 |
| CVPGPRWWYHSA | 0.671 ± 0.031 | 0.755 ± 0.015 | 0.685 ± 0.031 | 0.775 ± 0.011 | 0.233 ± 0.0045 | 0.272 ± 0.019 | 0.53465 ± 0.00023 | 0.446 ± 0.0059 |
| CWFGLVSLFWVV | 0.49 ± 0.051 | 0.52 ± 0.012 | 0.421 ± 0.04 | 0.576 ± 0.0068 | 0.275 ± 0.0067 | 0.299 ± 0.015 | 0.434 ± 0.016 | 0.429 |
| DAIVLGSVVVCR | 0.515 ± 0.032 | 0.563 ± 0.017 | 0.393 ± 0.029 | 0.5719 ± 0.0051 | 0.342 ± 0.0065 | 0.39 ± 0.038 | 0.55 ± 0.013 | 0.414 ± 0.026 |
| DCRFIIFYCVMV | 0.48 ± 0.022 | 0.5 ± 0.019 | 0.434 ± 0.053 | 0.509 ± 0.019 | 0.454 ± 0.06 | 0.454 ± 0.037 | 0.506 ± 0.019 | 0.457 ± 0.029 |
| DDESLVGRWRKV | 0.647 ± 0.011 | 0.7263 ± 0.00098 | 0.6402 ± 0.0045 | 0.738 ± 0.011 | 0.25 ± 0.0057 | 0.313 ± 0.014 | 0.547 ± 0.019 | 0.365 ± 0.11 |
| DFPGDIILRLIA | 0.576 ± 0.041 | 0.748 ± 0.044 | 0.635 ± 0.014 | 0.728 ± 0.025 | 0.139 ± 0.0097 | 0.155 ± 0.0082 | 0.214 ± 0.069 | 0.207 ± 0.11 |
| DLAWAIGRLTKG | 0.72 ± 0.02 | 0.769 ± 0.033 | 0.654 ± 0.029 | 0.761 ± 0.016 | 0.653 ± 0.011 | 0.652 ± 0.0094 | 0.743 ± 0.013 | 0.568 ± 0.2 |
| DLPKAYCIEMIG | 0.6033 ± 0.0055 | 0.718 ± 0.015 | 0.613 ± 0.034 | 0.7187 ± 0.005 | 0.198 ± 0.029 | 0.215 ± 0.023 | 0.432 ± 0.02 | 0.328 ± 0.027 |
| DNLYSLEFMAIR | 0.719 ± 0.04 | 0.78 ± 0.016 | 0.647 ± 0.021 | 0.7875 ± 0.0042 | 0.655 ± 0.025 | 0.645 ± 0.012 | 0.7796 ± 0.004 | 0.566 ± 0.19 |
| DPPRPIMRIHMI | 0.553 ± 0.065 | 0.651 ± 0.042 | 0.671 ± 0.059 | 0.719 ± 0.016 | 0.115 ± 0.021 | 0.111 ± 0.015 | 0.171 ± 0.027 | 0.181 ± 0.0027 |
| DSPRGRCVRLLV | 0.66041 ± 1.4e-06 | 0.74745 ± 0.00025 | 0.646 ± 0.013 | 0.741 ± 0.017 | 0.253 ± 0.0077 | 0.308 ± 0.0036 | 0.599 ± 0.067 | 0.398 ± 0.03 |
| DWCACFFILLLA | 0.0391 ± 0.0052 | 0.0382 ± 0.012 | 0.117 ± 0.026 | 0.17 ± 0.016 | 0.145 ± 0.0095 | 0.0983 ± 0.018 | 0.111 ± 0.028 | 0.152 ± 0.019 |
| DWTVSYLWVTAL | 0.534 ± 0.042 | 0.592 ± 0.019 | 0.469 ± 0.025 | 0.599 ± 0.006 | 0.185 ± 0.0044 | 0.208 ± 0.0091 | 0.385 ± 0.02 | 0.331 ± 0.015 |
| ECCKRFCCRFVA | 0.627 ± 0.038 | 0.6982 ± 0.0042 | 0.644 ± 0.0065 | 0.73 ± 0.018 | 0.231 ± 0.0082 | 0.256 ± 0.021 | 0.4002 ± 0.0022 | 0.338 ± 0.044 |
| EERKIFLKVVKV | 0.545 ± 0.036 | 0.496 ± 0.016 | 0.398 ± 0.025 | 0.5748 ± 0.0007 | 0.218 ± 0.021 | 0.305 ± 0.027 | 0.4656 ± 0.0028 | 0.463 ± 0.0094 |

Reference: the supplement of paper PMC10724198
